The subject of assay [1] is PPIs of the SKEMPI data set (by PDBID). Put plainly: SKEMPI experimental ΔΔG, single mutations to alanine. In kind it is binding. The following applies: class of the SKEMPI experimental ΔΔG.
The test system is the same in assay [2]. The following applies: single mutation to alanine, ref SKEMPI, cited from earlier work; for sk_ddG_kJ (SKEMPI experimental ΔΔG): residue group SQNT; for sk_ddG_kJ: SKEMPI experimental ΔΔG of binding, complex by PDBID.

B1: 1EMV NA24A (protein, UniProt P13479 1-86, looked up, variant N24A)
Colicin-E9 immunity protein: MELKHSISDYTEAEFLQLVTTICAADTSSEEELVKLVTHFEEMTEHPSGSDLIYYPKEGDDDSPSGIVNTVKQWRAANGKSGFKQG
As to B1, in assay [1], the sk_class entry is on record as “Neutral (neutral (little effect) 4.184 kJ/mol < ΔΔG > −4.184 kJ/mol)”. Further, the “sk_ddG_kJ (SKEMPI experimental ΔΔG)” value in assay [2] (complex given by PDBID) is on record as 0.59 kJ.

B2: 1EMV TA44A (protein, UniProt P13479 1-86, looked up, variant T44A)
Colicin-E9 immunity protein: MELKHSISDYTEAEFLQLVTTICNADTSSEEELVKLVTHFEEMAEHPSGSDLIYYPKEGDDDSPSGIVNTVKQWRAANGKSGFKQG
With B2, the sk_class entry in assay [1] is “Neutral (neutral (little effect) 4.184 kJ/mol < ΔΔG > −4.184 kJ/mol)”. Further, in assay [2] (complex given by PDBID), the “sk_ddG_kJ (SKEMPI experimental ΔΔG)” value is 1.26 kJ.

B3: 1EMV NA69A (protein, UniProt P13479 1-86, looked up, variant N69A)
Colicin-E9 immunity protein: MELKHSISDYTEAEFLQLVTTICNADTSSEEELVKLVTHFEEMTEHPSGSDLIYYPKEGDDDSPSGIVATVKQWRAANGKSGFKQG
Turning to B3, the sk_class entry in assay [1] is “Neutral (neutral (little effect) 4.184 kJ/mol < ΔΔG > −4.184 kJ/mol)”. Also, the “sk_ddG_kJ (SKEMPI experimental ΔΔG)” value in assay [2] (complex given by PDBID) was 1.17 kJ.

B4: 1EMV SA63A (protein, UniProt P13479 1-86, looked up, variant S63A)
Colicin-E9 immunity protein: MELKHSISDYTEAEFLQLVTTICNADTSSEEELVKLVTHFEEMTEHPSGSDLIYYPKEGDDDAPSGIVNTVKQWRAANGKSGFKQG
Take B4: in assay [1], the sk_class entry is “Neutral (neutral (little effect) 4.184 kJ/mol < ΔΔG > −4.184 kJ/mol)”. In addition, the “sk_ddG_kJ (SKEMPI experimental ΔΔG)” value in assay [2] (complex given by PDBID) is 3.64 kJ.

B5: 1EMV SA50A (protein, UniProt P13479 1-86, looked up, variant S50A)
Colicin-E9 immunity protein: MELKHSISDYTEAEFLQLVTTICNADTSSEEELVKLVTHFEEMTEHPSGADLIYYPKEGDDDSPSGIVNTVKQWRAANGKSGFKQG
Regarding B5, the sk_class result in assay [1] is reported as “Positive (positive (a hot residue) ΔΔG ≥ 4.184 kJ/mol)”. The “sk_ddG_kJ (SKEMPI experimental ΔΔG)” value in assay [2] (complex given by PDBID) is listed as 9.16 kJ.

B6: 1EMV SA29A (protein, UniProt P13479 1-86, looked up, variant S29A)
Colicin-E9 immunity protein: MELKHSISDYTEAEFLQLVTTICNADTSAEEELVKLVTHFEEMTEHPSGSDLIYYPKEGDDDSPSGIVNTVKQWRAANGKSGFKQG
Regarding B6, the sk_class entry in assay [1] is “Neutral (neutral (little effect) 4.184 kJ/mol < ΔΔG > −4.184 kJ/mol)”. Also, the “sk_ddG_kJ (SKEMPI experimental ΔΔG)” value in assay [2] (complex given by PDBID) is 4.02 kJ.

B7: 1EMV SA48A (protein, UniProt P13479 1-86, looked up, variant S48A)
Colicin-E9 immunity protein: MELKHSISDYTEAEFLQLVTTICNADTSSEEELVKLVTHFEEMTEHPAGSDLIYYPKEGDDDSPSGIVNTVKQWRAANGKSGFKQG
In the case of B7, the sk_class result in assay [1] was “Neutral (neutral (little effect) 4.184 kJ/mol < ΔΔG > −4.184 kJ/mol)”. Further, the “sk_ddG_kJ (SKEMPI experimental ΔΔG)” value in assay [2] (complex given by PDBID) is recorded as 0.04 kJ.

B8: 2WPT SA50A (protein, UniProt P04482 1-86, looked up, variant S50A)
Colicin-E2 immunity protein: MELKHSISDYTEAEFLEFVKKICRAEGATEEDDNKLVREFERLTEHPDGADLIYYPRDDREDSPEGIVKEIKEWRAANGKSGFKQG
As to B8, the sk_class entry in assay [1] (ref SKEMPI) was “Positive (positive (a hot residue) ΔΔG ≥ 4.184 kJ/mol)”. The “sk_ddG_kJ (SKEMPI experimental ΔΔG, mutation to alanine)” value in assay [2] (complex given by PDBID, chain and residue by mut_pdb) is on record as 10.04 kJ.

B9: 1DAN TU203A (protein, UniProt P13726 33-251, looked up, variant T203A)
extracellular domain: SGTTNTVAAYNLTWKSTNFKTILEWEPKPVNQVYTVQISTKSGDWKSKCFYTTDTECDLTDEIVKDVKQTYLARVFSYPAGNVESTGSAGEPLYENSPEFTPYLETNLGQPTIQSFEQVGTKVNVTVEDERTLVRRNNTFLSLRDVFGKDLIYTLYYWKSSSSGKKTAKTNTNEFLIDVDKGENYCFSVQAVIPSRTVNRKSADSPVECMGQEKGEFRE
modifications: extracellular domain
Turning to B9, in assay [1], the sk_class result is listed as “Neutral (neutral (little effect) 4.184 kJ/mol < ΔΔG > −4.184 kJ/mol)”. The “sk_ddG_kJ (SKEMPI experimental ΔΔG)” value in assay [2] (complex given by PDBID) was 0.59 kJ.

B10: 1DAN KT41A (protein, UniProt P13726 33-251, looked up, variant K41A)
extracellular domain: SGTTNTVAAYNLTWKSTNFKTILEWEPKPVNQVYTVQISTASGDWKSKCFYTTDTECDLTDEIVKDVKQTYLARVFSYPAGNVESTGSAGEPLYENSPEFTPYLETNLGQPTIQSFEQVGTKVNVTVEDERTLVRRNNTFLSLRDVFGKDLIYTLYYWKSSSSGKKTAKTNTNEFLIDVDKGENYCFSVQAVIPSRTVNRKSTDSPVECMGQEKGEFRE
modifications: extracellular domain
In the case of B10, in assay [1] (ref SKEMPI), the sk_class entry is “Neutral (neutral (little effect) 4.184 kJ/mol < ΔΔG > −4.184 kJ/mol)”. Further, in assay [2], the sk_ddG_kJ was 1.38 kJ.

B11: 1DAN ET24A (protein, UniProt P13726 33-251, looked up, variant E24A)
extracellular domain: SGTTNTVAAYNLTWKSTNFKTILAWEPKPVNQVYTVQISTKSGDWKSKCFYTTDTECDLTDEIVKDVKQTYLARVFSYPAGNVESTGSAGEPLYENSPEFTPYLETNLGQPTIQSFEQVGTKVNVTVEDERTLVRRNNTFLSLRDVFGKDLIYTLYYWKSSSSGKKTAKTNTNEFLIDVDKGENYCFSVQAVIPSRTVNRKSTDSPVECMGQEKGEFRE
modifications: extracellular domain
For B11, in assay [1] (ref SKEMPI), the sk_class entry is recorded as “Neutral (neutral (little effect) 4.184 kJ/mol < ΔΔG > −4.184 kJ/mol)”. In addition, the sk_ddG_kJ in assay [2] is on record as 2.76 kJ.

B12: 1DAN DT44A (protein, UniProt P13726 33-251, looked up, variant D44A)
extracellular domain: SGTTNTVAAYNLTWKSTNFKTILEWEPKPVNQVYTVQISTKSGAWKSKCFYTTDTECDLTDEIVKDVKQTYLARVFSYPAGNVESTGSAGEPLYENSPEFTPYLETNLGQPTIQSFEQVGTKVNVTVEDERTLVRRNNTFLSLRDVFGKDLIYTLYYWKSSSSGKKTAKTNTNEFLIDVDKGENYCFSVQAVIPSRTVNRKSTDSPVECMGQEKGEFRE
modifications: extracellular domain
Consider B12, for which the sk_class result in assay [1] (ref SKEMPI) is reported as “Positive (positive (a hot residue) ΔΔG ≥ 4.184 kJ/mol)”. Moreover, the sk_ddG_kJ in assay [2] is recorded as 10.00 kJ.

B13: 1DAN KT48A (protein, UniProt P13726 33-251, looked up, variant K48A)
extracellular domain: SGTTNTVAAYNLTWKSTNFKTILEWEPKPVNQVYTVQISTKSGDWKSACFYTTDTECDLTDEIVKDVKQTYLARVFSYPAGNVESTGSAGEPLYENSPEFTPYLETNLGQPTIQSFEQVGTKVNVTVEDERTLVRRNNTFLSLRDVFGKDLIYTLYYWKSSSSGKKTAKTNTNEFLIDVDKGENYCFSVQAVIPSRTVNRKSTDSPVECMGQEKGEFRE
modifications: extracellular domain
For the molecule B13, the sk_class result in assay [1] (ref SKEMPI) was “Neutral (neutral (little effect) 4.184 kJ/mol < ΔΔG > −4.184 kJ/mol)”. Further, the sk_ddG_kJ in assay [2] is reported as 1.76 kJ.

B14: 1DAN KT28A (protein, UniProt P13726 33-251, looked up, variant K28A)
extracellular domain: SGTTNTVAAYNLTWKSTNFKTILEWEPAPVNQVYTVQISTKSGDWKSKCFYTTDTECDLTDEIVKDVKQTYLARVFSYPAGNVESTGSAGEPLYENSPEFTPYLETNLGQPTIQSFEQVGTKVNVTVEDERTLVRRNNTFLSLRDVFGKDLIYTLYYWKSSSSGKKTAKTNTNEFLIDVDKGENYCFSVQAVIPSRTVNRKSTDSPVECMGQEKGEFRE
modifications: extracellular domain
Turning to B14, the sk_class entry in assay [1] (ref SKEMPI) is recorded as “Neutral (neutral (little effect) 4.184 kJ/mol < ΔΔG > −4.184 kJ/mol)”. Also, the sk_ddG_kJ in assay [2] was 0.50 kJ.

B15: 1DAN KT15A (protein, UniProt P13726 33-251, looked up, variant K15A)
extracellular domain: SGTTNTVAAYNLTWASTNFKTILEWEPKPVNQVYTVQISTKSGDWKSKCFYTTDTECDLTDEIVKDVKQTYLARVFSYPAGNVESTGSAGEPLYENSPEFTPYLETNLGQPTIQSFEQVGTKVNVTVEDERTLVRRNNTFLSLRDVFGKDLIYTLYYWKSSSSGKKTAKTNTNEFLIDVDKGENYCFSVQAVIPSRTVNRKSTDSPVECMGQEKGEFRE
modifications: extracellular domain
Consider B15, for which the sk_class result in assay [1] (ref SKEMPI) is recorded as “Neutral (neutral (little effect) 4.184 kJ/mol < ΔΔG > −4.184 kJ/mol)”. Besides, the sk_ddG_kJ in assay [2] is -1.63 kJ.

B16: 1AHW DC178A (protein, UniProt P13726 33-251, looked up, variant D178A)
extracellular domain: SGTTNTVAAYNLTWKSTNFKTILEWEPKPVNQVYTVQISTKSGDWKSKCFYTTDTECDLTDEIVKDVKQTYLARVFSYPAGNVESTGSAGEPLYENSPEFTPYLETNLGQPTIQSFEQVGTKVNVTVEDERTLVRRNNTFLSLRDVFGKDLIYTLYYWKSSSSGKKTAKTNTNEFLIAVDKGENYCFSVQAVIPSRTVNRKSTDSPVECMGQEKGEFRE
modifications: extracellular domain
Regarding B16, the sk_class entry in assay [1] (ref SKEMPI) is listed as “Neutral (neutral (little effect) 4.184 kJ/mol < ΔΔG > −4.184 kJ/mol)”. For the same molecule, the sk_ddG_kJ in assay [2] is on record as -2.01 kJ.

B17: 1DAN ET26A (protein, UniProt P13726 33-251, looked up, variant E26A)
extracellular domain: SGTTNTVAAYNLTWKSTNFKTILEWAPKPVNQVYTVQISTKSGDWKSKCFYTTDTECDLTDEIVKDVKQTYLARVFSYPAGNVESTGSAGEPLYENSPEFTPYLETNLGQPTIQSFEQVGTKVNVTVEDERTLVRRNNTFLSLRDVFGKDLIYTLYYWKSSSSGKKTAKTNTNEFLIDVDKGENYCFSVQAVIPSRTVNRKSTDSPVECMGQEKGEFRE
modifications: extracellular domain
Turning to B17, the sk_class result in assay [1] (ref SKEMPI) is reported as “Neutral (neutral (little effect) 4.184 kJ/mol < ΔΔG > −4.184 kJ/mol)”. The sk_ddG_kJ in assay [2] is listed as 0.46 kJ.

B18: 1DAN KT46A (protein, UniProt P13726 33-251, looked up, variant K46A)
extracellular domain: SGTTNTVAAYNLTWKSTNFKTILEWEPKPVNQVYTVQISTKSGDWASKCFYTTDTECDLTDEIVKDVKQTYLARVFSYPAGNVESTGSAGEPLYENSPEFTPYLETNLGQPTIQSFEQVGTKVNVTVEDERTLVRRNNTFLSLRDVFGKDLIYTLYYWKSSSSGKKTAKTNTNEFLIDVDKGENYCFSVQAVIPSRTVNRKSTDSPVECMGQEKGEFRE
modifications: extracellular domain
As to B18, the sk_class result in assay [1] (ref SKEMPI) is “Neutral (neutral (little effect) 4.184 kJ/mol < ΔΔG > −4.184 kJ/mol)”. Also, the sk_ddG_kJ in assay [2] is listed as 1.00 kJ.

B19: 1DAN KT20A (protein, UniProt P13726 33-251, looked up, variant K20A)
extracellular domain: SGTTNTVAAYNLTWKSTNFATILEWEPKPVNQVYTVQISTKSGDWKSKCFYTTDTECDLTDEIVKDVKQTYLARVFSYPAGNVESTGSAGEPLYENSPEFTPYLETNLGQPTIQSFEQVGTKVNVTVEDERTLVRRNNTFLSLRDVFGKDLIYTLYYWKSSSSGKKTAKTNTNEFLIDVDKGENYCFSVQAVIPSRTVNRKSTDSPVECMGQEKGEFRE
modifications: extracellular domain
For the molecule B19, the sk_class result in assay [1] (ref SKEMPI) was “Positive (positive (a hot residue) ΔΔG ≥ 4.184 kJ/mol)”. Besides, the sk_ddG_kJ in assay [2] was 10.21 kJ.
